This data set is described as follows: soluble on expression in E. coli; label from the status in PepcDB or PDB records.
With “MKNTQLLTSLRYVLLGALTVTTSVVQAESIAITNATVYTVAKKGVLFQATVMVDEGKITAVYGKDEVPESLSADTIIDAKERILTPGFIATHNLLGLVEVGAVSDTRDSSDKDADITFDASLAFNPKSTLIAYARKGGITSSLVMPYGGEDVITGQSFVVNLSGDFDSVIMPQNAVIVSLGASGKGSRATKLQTLSNELEDAQKALAKAEKVKASSKKEKEEKEAETPSRSELVLNELLSGDKPLIAYADRATDILALLKLKQKFNLNLILAGASDAVLVSDEIAKANVVVMMSAIDNLPSSFDSLHNSLTNVAKLTDAGVKVIISNSGESYNINQLRFDAGVAVANGVAATTALAAVTANVADSFNLNSGRIAVGKNADLVLWSSDPFEISTKVDAMWINGQAMSLKSRQDALRQRYIVETDMPRAYTK”, the “soluble on expression in E. coli” value was “not soluble”. “MAKLDKKVYERELELLQIELVKLQEWVKQEKLKLVVIFEGRDAAGKGGVIKTITEKLNPRVCRVAALPAPTEKEKTQWYFQRYVAHLPAGGEIVLFDRSWYNRAGVEKVMGFCSDEEYQEFLRSCPEFERMLQRSGIILLKYWFSVSDEEQERRFIERINTPLKRWKFSPMDLESRQRWAAYSRAKDEMFAYTDTKHCPWWVVPSDDKKRARLNCISHLLSSVEYQEIEHAPITLPEINKQGYVRPPIEDQTFVPQRY”: the “soluble on expression in E. coli” value is listed as “not soluble”. In the case of “MGSDKIHHHHHHMQCIRVGVIGAGGVAQVEHIPNLLKLHRQFKILGVYDPSRKVRAFVGEEFGLETFSDLDALLAMPLDAVVIASPDALHREQSLAAFARGLHVFCEKPLCYGAQDIDQLIAARDRAGKVLQVGYMKRFDPSYEAALNMLPGTARTLRSVSVEVNDPDAWPFIRHASTCRGDDVAAELIASTEARQREQVDRAVPGLDDPHAFRGFVGAYSSSIVHDVNAVHGLLDALGVADGEIVGASLFAKGEAGQGTVRLLDGQALWTMAHIATPGLPDYRERITLHFDDASLELEFPSPYLNHQPTRLTIRTGDGHTLSSRDIRSGYEEAFVEELKGFWSAIVEGTAVRNTAEHARRDMTLLAGLTRHHLDQSKQSGVRP”, the “soluble on expression in E. coli” value is reported as “not soluble”. For “QQEVYGMMPRDETDSKTASASPWKSARLMVHTVATFNSIKER”, the “soluble on expression in E. coli” value is given as “soluble”.

“MNEIMLETKNLCKTFRQQSVVQNISLSVPKYAIYGLLGPNGAGKSTTLKMITGMLIPTSGEIYFDGHKWTRHDLHSIGALIDSPPLYENLTARENLQVRTTVLGLPKSRIDEVLHVVELENTEKKKAKDFSMGMKQRLGIAIALLNHPKFLILDEPMNGLDPFGIQELRKLILSFPGKGITVILSSHILSEVSQIADHVGIISGGVLGYQGKLNKNDDLEDLFVQVAGKYRREA”: the “soluble on expression in E. coli” value was “not soluble”. Turning to “MGSDKIHHHHHHMYLKETLDQFASIDNILKLLKKNPSFNKHCIQERLPQKTIITSNKQRKHIYIIEEGFMKLIFDDNKPRDFSYILSKGAFPFLPVYTEDIPEHTMMVALTDIVWWKIDISFFKGMMETEDPRNYLMLHQLAETRRRFYTIAYQEKLTSRESIYYSLSTMIEFGLRISEKIVELPEFLTYQILADHANTSKSYTSKVLGHLREEGILESQRKPWRINDVQKLQKLIEMNVPLVKIQKN”, the “soluble on expression in E. coli” value is given as “not soluble”. For the sequence “MIGLMKGLAYTLKELTREKVTYDYPHEPLPLPDRFRGIQKFYPEKCIVCNQCVNICPTECIQLTGKKHPDPTKKGKVIETYNINFEICILCDLCTEVCPTEAIVMTNNFELAEYSRDALYKDLAWLDENDTNIRRENKP”, the “soluble on expression in E. coli” value is given as “not soluble”. The result for “MGSDKIHHHHHHMDDLLLELARQYRNRYYGKYRGFVTDNDDPEQRGRLRLMVPSVLGETPTGWALPSLPFGGLADQGLFMVPEVDAQVWVEFEAGNVNLPIWTGTFWQASGDPPAEAAKSPPTTRVLKTPSGHILQFDDESGAEKFRLAHPAGTEMTVDEKGTVIVADAKGNTLTLDADAGKVVVEDSNGNTITMSSSGTTIEDANGNKVEMAASGVTVKGQQVVVDAQTVMLAGQGGEPIIKGQSFLTLFATHVHPSAMGPTGPPIPQGEMSTLSMKVMTS” reads “not soluble”; that for “MVIRRCEKMEEETWKLKIGMCIQAKDFYSKRTDCSVHRPDVGGGLITEGNGYRVVVHDQCEEPNPFIIATTKQTHFGVTHSYIEFSNSNTGAPENIPDCSKHILISVYCDQEASGLDFHTLKYVESNYLHITVKYDTSCINHLGVNYSFMNECERKLTSIYETDTLTCGAKDIQTRDKYLKTCTNTKFDRSVYKTHMQKSKILHVKTELE”, “not soluble”; that for “MFKRFRRLRLNENLRSMVRENSLSVNDLIYPLFVVNGTGIKKEISSMPDVFQMSLDEILKECQNVVNLGIKAIILFGVLENEKKDSCGSDALDDEGLVARSIREIKKNFPDLFIISDLCFCEYTDHGHCGIIDPKIKSVDNDATLEISAKQALVHARAGVDMIAPSGMMDGVITTLRKALDKEGFENLPIMAYSTKFASSYYGPFRDVAESAPSYGDRKSYQMDFANGKEALEESLEDEAQGADILMVKPALAYLDVVKEISLHSNLPLCIYNVSGEYAMLKAAKNAGVIDYEKVLYETIIAFKRAGAKLIITYHAKELAKMLKGEK”, “soluble”.

For the sequence “MKILKKIFQVIVKIINHCVPVDSRSLYFIPHPNCRTDKYDIINYSSDNVLVLLNYLLKKDSAEYYKIYVEIYDSSRISEYQEYIYGINPNIRCTFLCACVGRFFFNKVSFKDMLYAFFCFCRASKCFTATFYYDFSFKKRSQQIICLGYYTPFKDDYHMGDHSYDKFRNTTCNSFDYSIATSCLSARIISIDCGISYDKFKVLGFPRNDLLISKNNCNVIKREISKFAGYDVTKYIVYTPTFRDYETVTEGNLRSILGYVDCDLLKLSKILLKFNAALILKLHPLQNKTVLKKDLPKGILVFEQTYKYGLYDLLSFSDGMITDYTSTYFDFLLVNKPVIFNFYDIEEYRRVRGFSFEPIEFFCAGDIVYNYNELIDAVMGLLAGKDIHAEHRRHISLLMNQFQDDNSTKRICDIFLNEILEHHHHHH”, the “soluble on expression in E. coli” value was “not soluble”.

For the sequence “MSLHYQPKQDLLQNRIILVTGASDGIGREAALTYARYGATVILLGRNEEKLRRVAQHIADEQHVQPQWFTLDLLTCTAEECRQVADRIAAHYPRLDGVLHNAGLLGEIGPMSEQDPQIWQDVMQVNVNATFMLTQALLPLLLKSDAGSLVFTSSSVGRQGRANWGAYATSKFATEGMMQVLADEYQNRSLRVNCINPGGTRTSMRASAFPTEDPQKLKTPADIMPLYLWLMGDDSRRKTGMTFDAQPGRKEGHHHHHH”, the “soluble on expression in E. coli” value is on record as “soluble”. For “EEYPDGFAPMKPDQAEEAVLAGIALSACLIETNRRERFADRLRAAAGALREDWVVKIGDNHVAARLLDGLVTIPFDMDIAIEGAIEGESKSVVTDWR”, the “soluble on expression in E. coli” value is on record as “not soluble”. As to “MAHHHHHHMGTLEAQTQGPGSMTAASSSAPTLGIIRLEHAKGLDLPAYETAGSAGMDLRAAVAEDRQIVLLPGRRTLVPTGLILEIPQGYEVQIRPRSGLAFKNGITCLNTPGTIDSDYRGEVKVLLINLGDDDFRIERGMRIAQAVFAPVIQPKIEERAKISETARGAGGFGSTGTA”, the “soluble on expression in E. coli” value is reported as “soluble”. For “MSLKFSAKLVDDPSIEKSSSAIRLMCLSDTHGVHNNINKNTIFPADILLFAGDMTLFGNPEHAESFKNFITSLPVQHKVIISGNLDLPFDLKNYSHFTEWFSKFSYKNGPESIKTTFTEDQDIIYLEHQAVTIENVKIFGSPFTPAFGDFGFPTTKDTASKLWEQVPEDTDVILCHGPPHNICDMTSTGFHAGCPELRKSVERVKPAAVVFGHIHEAHGNTMIGNTLCCNVAIVNSNRDVAYGPTYIDLIQEGHHHHHH”, the “soluble on expression in E. coli” value is recorded as “soluble”.

With “MGSDKIHHHHHHMVRVRFAPSPTGFLHVGGARTALFNFLFARKEKGKFILRIEDTDLERSEREYEEKLMESLRWLGLLWDEGPDVGGDHGPYRQSERVEIYREHAERLVKEGKAYYVYAYPEEIEEMREKLLSEGKAPHYSQEMFEKFDTPERRREYEEKGLRPAVFFKMPRKDYVLNDVVKGEVVFKTGAIGDFVIMRSNGLPTYNFACVVDDMLMEITHVIRGDDHLSNTLRQLALYEAFEKAPPVFAHVSTILGPDGKKLSKRHGATSVEAFRDMGYLPEALVNYLALLGWSHPEGKELLTLEELISSFSLDRLSPNPAIFDPQKLKWMNGYYLRNMPIEKLAELAKPFFEKAGIKIIDEEYFKKVLEITKERVEVLSEFPEESRFFFEDPAPVEIPEEMKEVFSQLKEELQNVRWTMEEITPVFKKVLKQHGVKPKEFYMTLRRVLTGREEGPELVNIIPLLGKEIFLRRIERSLGG”, the “soluble on expression in E. coli” value was “soluble”. Regarding “MLIRYRKNYEKIAMGLLSFMPTEKDLKRLQQTMKQYETNNDWQLFLWKEGDDIVGIIGVLLRAPDVVEIQHISVNPSHRHQGIGKQMVKALKEVYPGRRLCANEWTASFFDKCHACNE”, the “soluble on expression in E. coli” value is recorded as “not soluble”. To “SSTGTFVVSQPLNYRGGARVEPADASGTEKAFEPATGRVIATFTCSGEKEVNLAVQNAKAAFKIWSQKSGMERCRILLEAARIIREREDEIATMECINNGKSIFEARLDIDISWQCLEYYAGLAASMAGEHIQLPGGSFGYTRREPLGVCVGIGAWNYPFQIASWKSAPALACGNAMVFKPSPFTPVSALLLAEIYSEAGVPPGLFNVVQGGAATGQFLCQHPDVAKVSFTGSVPTGMKIMEMSAKGIKPVTL” belongs “soluble”; to “TLFDKIWDAHVVTTVEDGPTQLYIDRLYCHEVTSPQAFAGLRERGIKVLRPEKVFCMPDHNTPTHDQDKPIEDPISKTQVDTLTKNAKDFGLTHFGMMHPKNGIIHVVGPERALTLPGMTIVCGDSHTSTHGAMGAIAFGIGTSEVEMVLASQCILQSRPKT”, “not soluble”. “GQQINIHKPPIPERVQTIQGQVLFTKDDIVHGQQVWQSIGGQQIGSVWGHGSYVAPDWTADWLHREATIMLDSWAQEQGHEHYSDLPAEQQAALKERLKKTMRSNTYDAQTGTITLDDLRVDAMRSNAQYYSELFRDGHEHYAIPQNALNDKAAADDMTAFFWWTSWSASTNAPDSDISYTQNWPHEPLIDNAPPTGNI”: the “soluble on expression in E. coli” value is “not soluble”. Take “HTHWGYTGHDSPESWGNLSEEFRLCSTGKNQSPVNITETVSGKLPAIKVNYKPSMVDVENNGHTIQVNYPEGGNTLTVNGRTYTLKQFHFHVPSENQIKGRTFPMEAHFVHLDENKQPLVLAVLYEAGKTNGRLSSIWNVMPMTAGKVKLNQPFDASTLLPKRLKYYRFAGSLTTPPCTEGVSWLVLKTYDHIDQAQAEKFTRAVGSENNRPVQPLNARVVIE”: the “soluble on expression in E. coli” value was “soluble”. With “MDTQKLIEVLAREVLKEIAKRENQKLSENNEIISKKSVVTAFLGNDEVLKDELKKEASFMENIKLDSTWEEIGQCENKKRLVVSTLGINELIELSQGRKSVITEFLFNDGEVVLVEEGLEYKKYTKPAALINLYDGYLDKVREFGIKVVKRTEVKNVFCTKEKVYLKGLVTERRLRKLKLKNQTLEVDAKSKITSLAMDYIKENSIELCYERRQ”, the “soluble on expression in E. coli” value is reported as “not soluble”. On to “MLYDLAKQRKTVRKFKEEKPSIEKLMYCLKVANEAPSGMNAQPWRFLVVKDEETKRQIRETCEKAEKDFYENVRGKLKEWLNENSFNWKKPFLEEAPYLLLVFSKKDAPYSRESVWLAIGYLLLALEEQGLGTVPYTPPNPNELTKIVNTPSDLRFEVILPVGYPDDPKPKYPREEMKVSFNHF”, for which the “soluble on expression in E. coli” value is “not soluble”.

Consider “MSLTTLNIGLILPDVLGTYGDDGNALVLRQRARMRGINAEIQRVTLDDAVPSTLDLYCLGGGEDTAQILATEHLTKDGGLQTAAAAGRPIFAVCAGLQVLGDSFRAAGRVIDGLGLIDATTVSLQKRAIGEVETTPTRAGFTAELTERLTGFENHMGATLLGPDAEPLGRVVRGEGNTDVWAASENTDDQRQQFAEGAVQGSIIATYMHGPALARNPQLADLMLAKAMGVALKDLEPLDIDVIDRLRAERLAEGHHHHHH”, for which the “soluble on expression in E. coli” value is reported as “soluble”.

Source of the values: the DeepSol protein solubility set.
